Measured values published in doi:10.1101/2023.10.23.563594 (bioRxiv, 2023).

T1: full-length unlabelled RING1B-PCGF4 catalytic dimer (human, UniProt Q99496-1;P35226)
T1 sequence 1: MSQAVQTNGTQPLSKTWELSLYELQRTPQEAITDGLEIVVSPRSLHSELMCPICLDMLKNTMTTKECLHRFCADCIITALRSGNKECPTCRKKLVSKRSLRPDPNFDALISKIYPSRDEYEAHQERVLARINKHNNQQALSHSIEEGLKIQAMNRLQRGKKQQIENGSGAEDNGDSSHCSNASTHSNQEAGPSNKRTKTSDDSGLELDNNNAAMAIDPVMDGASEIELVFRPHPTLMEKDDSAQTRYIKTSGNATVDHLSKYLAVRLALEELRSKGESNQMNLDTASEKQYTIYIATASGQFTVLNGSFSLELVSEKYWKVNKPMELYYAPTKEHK
T1 sequence 2: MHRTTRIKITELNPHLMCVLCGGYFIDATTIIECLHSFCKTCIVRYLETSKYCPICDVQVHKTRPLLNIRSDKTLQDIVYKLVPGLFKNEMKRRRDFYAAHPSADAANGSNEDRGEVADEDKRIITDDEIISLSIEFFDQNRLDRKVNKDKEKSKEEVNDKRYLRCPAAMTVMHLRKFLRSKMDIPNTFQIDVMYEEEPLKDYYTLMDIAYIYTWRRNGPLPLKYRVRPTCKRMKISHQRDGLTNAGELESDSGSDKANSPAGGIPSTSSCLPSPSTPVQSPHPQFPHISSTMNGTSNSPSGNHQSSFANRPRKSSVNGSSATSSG

B1: E3 ubiquitin ligase subunit RING1B, full-length, co-expressed in the vPRC1.4 complex (natural protein)
chain: MSQAVQTNGTQPLSKTWELSLYELQRTPQEAITDGLEIVVSPRSLHSELMCPICLDMLKNTMTTKECLHRFCADCIITALRSGNKECPTCRKKLVSKRSLRPDPNFDALISKIYPSRDEYEAHQERVLARINKHNNQQALSHSIEEGLKIQAMNRLQRGKKQQIENGSGAEDNGDSSHCSNASTHSNQEAGPSNKRTKTSDDSGLELDNNNAAMAIDPVMDGASEIELVFRPHPTLMEKDDSAQTRYIKTSGNATVDHLSKYLAVRLALEELRSKGESNQMNLDTASEKQYTIYIATASGQFTVLNGSFSLELVSEKYWKVNKPMELYYAPTKEHK
B2: Polycomb group ring-finger subunit PCGF4, full-length, co-expressed in the vPRC1.4 complex (natural protein)
chain: MHRTTRIKITELNPHLMCVLCGGYFIDATTIIECLHSFCKTCIVRYLETSKYCPICDVQVHKTRPLLNIRSDKTLQDIVYKLVPGLFKNEMKRRRDFYAAHPSADAANGSNEDRGEVADEDKRIITDDEIISLSIEFFDQNRLDRKVNKDKEKSKEEVNDKRYLRCPAAMTVMHLRKFLRSKMDIPNTFQIDVMYEEEPLKDYYTLMDIAYIYTWRRNGPLPLKYRVRPTCKRMKISHQRDGLTNAGELESDSGSDKANSPAGGIPSTSSCLPSPSTPVQSPHPQFPHISSTMNGTSNSPSGNHQSSFANRPRKSSVNGSSATSSG
B3: RING1 and YY1-binding protein (RYBP), full-length wild type, co-expressed in the vPRC1.4 complex (natural protein)
chain: MTMGDKKSPTRPKRQAKPAADEGFWDCSVCTFRNSAEAFKCSICDVRKGTSTRKPRINSQLVAQQVAQQYATPPPPKKEKKEKVEKQDKEKPEKDKEISPSVTKKNTNKKTKPKSDILKDPPSEANSIQSANATTKTSETNHTSRPRLKNVDRSTAQQLAVTVGNVTVIITDFKEKTRSSSTSSSTVTSSAGSEQQNQSSSGSESTDKGSSRSSTPKGDMSAVNDESF

How the values were obtained:
[1] = target: B3; assay: SEC-MALS
[2] = target: B1; assay: SEC-MALS
[3] = target: B1; assay: cross-linking
[4] = target: B2; assay: cross-linking
[5] = target: T1, full-length unlabelled RING1B-PCGF4 …; assay: pull-down
[6] = target: B1; assay: pull-down
[7] = target: B2; assay: pull-down

Row | stoichiometry N [1] | binding result [6] | binding result [7] | Binder | further results
1 | 1 | – | – | B1 | –
2 | 1 | – | – | B2 | stoichiometry N [2]: 1
3 | – | – | – | B3 | binding result [3]: binds; binding result [4]: binds
4 | – | – | – | RYBP full-length, 15N- or 13C/15N-labelled, from E. coli (natural protein, uniform 15N or 13C/15N isotope labelling) MTMGDKKSPTRPKRQAKPAADEGFWDCSVCTFRNSAEAFKCSICDVRKGTSTRKPRINSQLVAQQVAQQYATPPPPKKEKKEKVEKQDKEKPEKDKEISPSVTKKNTNKKTKPKSDILKDPPSEANSIQSANATTKTSETNHTSRPRLKNVDRSTAQQLAVTVGNVTVIITDFKEKTRSSSTSSSTVTSSAGSEQQNQSSSGSESTDKGSSRSSTPKGDMSAVNDESF | binding result [5]: binds
5 | – | binds | binds | RYBP A63T, co-expressed with RING1B and PCGF4 (natural protein) MTMGDKKSPTRPKRQAKPAADEGFWDCSVCTFRNSAEAFKCSICDVRKGTSTRKPRINSQLVTQQVAQQYATPPPPKKEKKEKVEKQDKEKPEKDKEISPSVTKKNTNKKTKPKSDILKDPPSEANSIQSANATTKTSETNHTSRPRLKNVDRSTAQQLAVTVGNVTVIITDFKEKTRSSSTSSSTVTSSAGSEQQNQSSSGSESTDKGSSRSSTPKGDMSAVNDESF | –
6 | – | binds | binds | RYBP Q69K, co-expressed with RING1B and PCGF4 (natural protein) MTMGDKKSPTRPKRQAKPAADEGFWDCSVCTFRNSAEAFKCSICDVRKGTSTRKPRINSQLVAQQVAQKYATPPPPKKEKKEKVEKQDKEKPEKDKEISPSVTKKNTNKKTKPKSDILKDPPSEANSIQSANATTKTSETNHTSRPRLKNVDRSTAQQLAVTVGNVTVIITDFKEKTRSSSTSSSTVTSSAGSEQQNQSSSGSESTDKGSSRSSTPKGDMSAVNDESF | –
